This note sets out measurements from PMC4690510, “Crystal structure of a novel two domain GH78 family α-rhamnosidase from Klebsiella oxytoca with rhamnose bound” (Proteins, 2015).

Series [1] deals with α-L-rhamnosidase from Klebsiella oxytoca (KoRha) (Klebsiella oxytoca KCTC 1686). As to the kind of experiment: dynamic light scattering; purified KoRha in solution, DynaPro-Titan instrument, 20°C; hydrodynamic radius 4.8 nm.
Substrate in the series “purified protein”: C[C@@H]1O[C@@H](Oc2ccc([N+](=O)[O-])cc2)[C@H](O)[C@H](O)[C@H]1O
Briefly: purified protein. The format is biochemical, Klebsiella oxytoca. Particulars: 20 mM MES pH 5.0, 10% DMSO in substrate solution.

In general, stoichiometry N refers to a count of units in the complex or per binding partner. For “α-L-rhamnosidase from Klebsiella oxytoca (KoRha) (enzyme)”, the stoichiometry N in series [1] worked out at 2.

B1: KoRha (Klebsiella oxytoca) (protein)
chain: MSQAIQHNSQVMMTRHPNFLRTAEALRPALSRQAHPPIAVVEAHADAAALFGWRAEPVSTLAAFYQRELSSGDSVIIDFGSHYVGYLHFLCQSAGSPPDAPAHLQLTFGETLSEVCEPFSDYQGWLSSSWLQQQDLWLDVLPAEIDLPRRYCFRYLKVEVKAVSRKFRLQFTQIEVNAVTSASGACPAATTSDPQLRAIDNVAVLTLQNCMQEVFEDGPKRDRRLWLGDLRLQALVNDVTFARHDLVRRCLYLFAGHTREDGMVSANVFVQPDVIADDTFLFDYSLFFVDVLYNYLQSAEDMATARELWPTARRQVELALTRCDASGVVRDSDDWWVFIDWQASLNKQAAAQGVLIYCLQRAIWLAERFEPELAVSYRQRLQQLKSAALDALWDPQQGFYVSGARRQVSWASQIWLVLAEVGTPQQRREIMRNLEKNPPAVAMNTPYLRHHYIAALLQCGLRDEAIAQIKAYWGAMVDYGADTFWEIFDPAHPDFSPYGSKLINSYCHAWSCTPAWFIRQYGL
notes: synthetic codon-optimised gene in pET15b, E. coli BL21(DE3); residues 11-523 modelled
The term Km denotes the concentration of substrate that gives half-maximal velocity. For orientation: kcat means the maximal rate divided by the concentration of active sites. With B1, in the series “purified protein”, the Km amounted to 210 ± 20 µM and the kcat turned out to be 0.98 s⁻¹.
